Results reported in publication PMC9727814 (Molecular Biology of the Cell, 2022).

T1: Nup88^517-742 (tags removed, from the co-purified complexes) (rat, UniProt O08658 517-742)
T1 sequence: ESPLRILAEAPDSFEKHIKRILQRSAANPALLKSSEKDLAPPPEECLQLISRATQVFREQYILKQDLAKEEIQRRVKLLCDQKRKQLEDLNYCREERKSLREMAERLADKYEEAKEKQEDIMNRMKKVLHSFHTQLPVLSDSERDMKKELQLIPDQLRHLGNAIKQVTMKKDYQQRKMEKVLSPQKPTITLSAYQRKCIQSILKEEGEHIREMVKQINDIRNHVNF

B1: Nup62^322-525 (tags removed, from the co-purified complexes) (domain or fragment)
chain: AVGTTTGPAMTYAQLESLINKWSLELEDQERHFLQQATQVNAWDRTLIENGEKITSLHREVEKVKLDQKRLDQELDFILSQQKELEDLLSPLEESVKEQSGTIYLQHADEEREKTYKLAENIDAQLKRMAQDLKDIIEHLNMAGGPADTSDPLQQICKILNAHMDSLQWVDQSSALLQRRVEEASRVCESRRKEQERSLRIAFD
B2: His6-tagged Nup88^517-742 (domain or fragment)
chain: T1 sequence

Assays:
[1] = molecular target: T1, Nup88^517-742 (tags removed, from the …); test: SEC-MALS + other: densitometry of SDS-PAGE bands
SEC-MALS = molecular target: the molecule itself; test: SEC-MALS

Binder | stoichiometry N [1] [Nup62 per Nup88] | stoichiometry N (SEC-MALS)
B1 | 2 | 
B2 |  | 2
